Earlier results on one substance are cited in article PMC6757120.

pKd: −log10 of the molar value.

For this data set, the target named is VEGF-A165 (Homo sapiens) (UniProt P15692).
Chain of UniProt P15692 (P15692 whole entry): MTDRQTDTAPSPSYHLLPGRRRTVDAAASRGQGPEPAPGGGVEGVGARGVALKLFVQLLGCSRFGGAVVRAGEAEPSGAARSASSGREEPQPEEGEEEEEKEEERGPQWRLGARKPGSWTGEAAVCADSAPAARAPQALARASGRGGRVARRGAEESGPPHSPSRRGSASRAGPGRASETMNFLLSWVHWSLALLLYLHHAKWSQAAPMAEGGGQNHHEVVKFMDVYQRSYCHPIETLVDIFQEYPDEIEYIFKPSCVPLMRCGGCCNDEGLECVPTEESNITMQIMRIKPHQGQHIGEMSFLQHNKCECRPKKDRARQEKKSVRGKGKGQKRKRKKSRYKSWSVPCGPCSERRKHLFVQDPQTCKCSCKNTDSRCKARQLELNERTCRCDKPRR

For NRP1 (from UniProt O14786), the pKd – broadly, the negative decadic logarithm of the Kd, by convention in mol/L – is 8.52.
